± gives the standard deviation of the averaged measurements.
Tested on: ATP
Test: switch fluorescence ratio, 500 uM ATP over buffer (Cy3 cluster intensity, sum of 5 cycles each) (fold (ratio)); higher = stronger signal-on switching upon ATP binding; sequences stand for … in TCGTCGGCAGCGTCAGATGTGTATAAGAGACAGTTTTTTTTTTTTTTTTTTTTTTTTT…TC
Settings: aptamer strand: ATP DNA aptamer (quencher-CACCTGGGGGAGTATTGCGGAGGAAGG + anchor), 100 nM annealed; ATP concentration: 500 uM
Method in brief: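 The fluorescence ratio divides summed target-cycle Cy3 intensity by summed buffer-cycle Cy3 intensity for each cluster and is averaged per switch-domain sequence. Cy3-labelled switching-strand clusters on a modified Illumina MiSeq flow-cell were annealed to 100 nM quencher-labelled ATP aptamer, then imaged in selection buffer and again after 15 min with 500 uM ATP at 22 °C. Five such cycles were run, with NaOH stripping and re-annealing between them, and clusters outside 100-1000 RFU were excluded.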
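Further: ATP exposure 15 min at 22 °C before imaging.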

Row | Sequence | switch fluorescence ratio
1 | CTATGGTATC | 1.02 ± 0.015
2 | CTATGTGGTG | 1.02 ± 0.054
3 | CTATTAATAC | 1.63 ± 0.096
4 | CTATTAGGGA | 0.9728 ± 0.0092
5 | CTATTCAGGG | 1.02 ± 0.066
6 | CTATTCGTGG | 0.973 ± 0.029
7 | CTATTGGCAA | 1.06 ± 0.022
8 | CTATTGGGCT | 1.01 ± 0.012
9 | CTATTTAGCC | 1.02 ± 0.063
10 | CTATTTCTGA | 0.931 ± 0.027
11 | CTATTTTGAT | 0.979 ± 0.024
12 | CTATTTTTAG | 0.9968 ± 0.0021
13 | CTCAGCGGGT | 1.49 ± 0.68
14 | CTCAGGATGT | 1.06 ± 0.026
15 | CTCAGTTTTA | 1.002 ± 0.0083
16 | CTCATATGCA | 1 ± 0.029
17 | CTCATATTTA | 1.01 ± 0.019
18 | CTCATTGGGC | 0.991 ± 0.027
19 | CTCATTTGAC | 1.032 ± 0.0056
20 | CTCCAGAGGG | 2.47 ± 1.8
21 | CTCCATTGAT | 1.01 ± 0.042
22 | CTCGAGAAGA | 1.01 ± 0.022
23 | CTCGATGGGA | 0.974 ± 0.061
24 | CTCGATTGTA | 0.999 ± 0.048
25 | CTCGGCCACT | 2.26 ± 1.6
26 | CTCGGGGGTA | 0.963 ± 0.031

Row | Sequence | switch fluorescence ratio
27 | CTCGGTTTGG | 1.01 ± 0.028
28 | CTCGTCTGAG | 1 ± 0.023
29 | CTCGTTTAGA | 1.022 ± 0.0084
30 | CTCTCTTTGA | 0.963 ± 0.015
31 | CTCTGACGGC | 1.12 ± 0.12
32 | CTCTGATGGG | 0.986 ± 0.021
33 | CTCTGGCGTT | 1.51 ± 0.66
34 | CTCTTAGGAT | 1.02 ± 0.023
35 | CTCTTGGGAA | 0.992 ± 0.014
36 | CTCTTGGGGC | 0.987 ± 0.041
37 | CTCTTGGGGT | 0.997 ± 0.021
38 | CTCTTTTGGT | 0.975 ± 0.02
39 | CTGAAAACTA | 1.02 ± 0.059
40 | CTGAAATGGT | 0.9928 ± 0.0041
41 | CTGAATTAGG | 0.988 ± 0.02
42 | CTGACGGTAG | 1.03 ± 0.022
43 | CTGACGTTTT | 1.18 ± 0.2
44 | CTGACTCGGT | 1.12 ± 0.013
45 | CTGACTTACG | 1.11 ± 0.016
46 | CTGACTTCAT | 1.0521 ± 0.00045
47 | CTGAGAGACA | 0.991 ± 0.04
48 | CTGAGAGATG | 0.9914 ± 0.0072
49 | CTGAGCTGCA | 1.12 ± 0.036
50 | CTGAGGAGGA | 1.031 ± 0.0076
51 | CTGAGGGCG | 1.045 ± 0.0058
52 | CTGAGGGGGC | 1.02 ± 0.016

Row | Sequence | switch fluorescence ratio
53 | CTGAGGTATG | 1.023 ± 0.0057
54 | CTGATAAGCG | 0.991 ± 0.039
55 | CTGATATGTA | 0.969 ± 0.045
56 | CTGATATTGT | 0.9844 ± 0.0066
57 | CTGATGAGTT | 0.982 ± 0.019
58 | CTGATTCCTG | 1.01 ± 0.04
59 | CTGCAGCGTC | 1.29 ± 0.053
60 | CTGCGAATAA | 1.4 ± 0.098
61 | CTGCGGCTGT | 1.02 ± 0.0053
62 | CTGCGGGTGC | 1.31 ± 0.2
63 | CTGCGGTGGG | 1.006 ± 0.0051
64 | CTGCGTCGTT | 0.9967 ± 0.004
65 | CTGCTCACAC | 1.22 ± 0.046
66 | CTGCTTTGTC | 0.941 ± 0.0058
67 | CTGGACCTTC | 1.66 ± 0.043
68 | CTGGAGGGA | 1 ± 0.07
69 | CTGGAGGGAC | 1.06 ± 0.026
70 | CTGGAGTCTG | 1.11 ± 0.086
71 | CTGGATTGGG | 0.98 ± 0.028
72 | CTGGCAGGAA | 1.01 ± 0.051
73 | CTGGCTGGTT | 1.01 ± 0.013
74 | CTGGGAAGGC | 1.13 ± 0.04
75 | CTGGGACCAG | 1.019 ± 0.007
76 | CTGGGACGAT | 0.998 ± 0.03
77 | CTGGGAGAAT | 1 ± 0.024
78 | CTGGGAGGCA | 0.9871 ± 0.0098

Row | Sequence | switch fluorescence ratio
79 | CTGGGCCGGT | 1.02 ± 0.063
80 | CTGGGCTTAG | 0.982 ± 0.037
81 | CTGGGGAAAA | 1.57 ± 0.94
82 | CTGGGGCCTA | 0.982 ± 0.023
83 | CTGGGGGCAG | 1.036 ± 0.0073
84 | CTGGGGGCTC | 1.01 ± 0.018
85 | CTGGGGGTGT | 1.05 ± 0.04
86 | CTGGGGTAGT | 1.03 ± 0.022
87 | CTGGGGTGTG | 1.01 ± 0.039
88 | CTGGGTAGGC | 0.992 ± 0.018
89 | CTGGGTATAG | 1.02 ± 0.032
90 | CTGGGTATTC | 1.03 ± 0.032
91 | CTGGGTCACA | 1.02 ± 0.011
92 | CTGGGTCGGC | 0.965 ± 0.04
93 | CTGGGTTCCT | 1.02 ± 0.024
94 | CTGGGTTGTT | 1.0204 ± 0.00077
95 | CTGGGTTTAA | 1.02 ± 0.013
96 | CTGGGTTTTT | 0.992 ± 0.03
97 | CTGGTAACCG | 1 ± 0.06
98 | CTGGTAGACT | 0.992 ± 0.023
99 | CTGGTCCGGA | 0.948 ± 0.0035
100 | CTGGTCGCGT | 0.9873 ± 0.0081
101 | CTGGTGAGGG | 0.9931 ± 0.0091
102 | CTGGTGGTTT | 1.01 ± 0.0047
103 | CTGGTGTCAC | 1.01 ± 0.029
104 | CTGGTGTTCT | 1.01 ± 0.017

Row | Sequence | switch fluorescence ratio
105 | CTGGTTCAGG | 1.026 ± 0.0082
106 | CTGGTTCGTC | 1.005 ± 0.0071
107 | CTGGTTGGGG | 1 ± 0.017
108 | CTGGTTTTAT | 0.9823 ± 0.009
109 | CTGGTTTTCG | 1 ± 0.021
110 | CTGGTTTTTT | 0.99 ± 0.01
111 | CTGTAATGGT | 1.04 ± 0.061
112 | CTGTAGATTG | 0.983 ± 0.019
113 | CTGTATAAGT | 0.985 ± 0.015
114 | CTGTCCATCC | 1.11 ± 0.035
115 | CTGTGATGG | 1.0776 ± 0.00079
116 | CTGTGCGCCA | 1.122 ± 0.0038
117 | CTGTGGCCGG | 0.967 ± 0.017
118 | CTGTGGGCTG | 0.989 ± 0.04
119 | CTGTGGGGGG | 0.9869 ± 0.0097
120 | CTGTGGGTAG | 1.03 ± 0.021
121 | CTGTGGGTTT | 1.01 ± 0.026
122 | CTGTGTGCAC | 1 ± 0.066
123 | CTGTTCTGTG | 0.951 ± 0.033
124 | CTGTTGGAAG | 0.969 ± 0.012
125 | CTGTTGTTG | 1 ± 0.01
126 | CTGTTTACTG | 0.987 ± 0.014
127 | CTTAAATGTA | 0.982 ± 0.021
128 | CTTAATCACT | 1.03 ± 0.083
129 | CTTAATTTTT | 0.98 ± 0.032
130 | CTTACGTGTG | 1.03 ± 0.034

Row | Sequence | switch fluorescence ratio
131 | CTTACGTTAT | 1.13 ± 0.036
132 | CTTACTCTTT | 1.0258 ± 0.00043
133 | CTTAGAAGCA | 0.9943 ± 0.0017
134 | CTTAGAAGTT | 1.01 ± 0.027
135 | CTTAGATAGT | 1.01 ± 0.0098
136 | CTTAGATATT | 1.01 ± 0.045
137 | CTTAGATGGG | 0.9579 ± 0.0064
138 | CTTAGGACAG | 1.01 ± 0.035
139 | CTTAGGGCGA | 0.9728 ± 0.001
140 | CTTAGGGGTC | 0.997 ± 0.026
141 | CTTAGGGTGT | 0.964 ± 0.04
142 | CTTAGTCGGC | 0.967 ± 0.015
143 | CTTATAATTT | 0.9947 ± 0.0082
144 | CTTATAGCAT | 1.096 ± 0.0085
145 | CTTATAGTAG | 0.9847 ± 0.0066
146 | CTTATATGAG | 1.001 ± 0.0025
147 | CTTATGAAGG | 0.989 ± 0.024
148 | CTTATGAGCA | 1.038 ± 0.0023
149 | CTTATTGGGT | 0.993 ± 0.011
150 | CTTCAATTAT | 1.01 ± 0.029
151 | CTTCAGGGGA | 1.01 ± 0.061
152 | CTTCATAGAT | 1.02 ± 0.016
153 | CTTCGCCTTT | 1.06 ± 0.016

From the supplement of paper PMC10126150
